Test results reported in patent US20210024651A1 (published 2021).

B1: Fc-modified anti-HER3 antibody clone 10D1 comprising GASD substitutions in CH2 region (antibody, human IgG1, kappa)
heavy: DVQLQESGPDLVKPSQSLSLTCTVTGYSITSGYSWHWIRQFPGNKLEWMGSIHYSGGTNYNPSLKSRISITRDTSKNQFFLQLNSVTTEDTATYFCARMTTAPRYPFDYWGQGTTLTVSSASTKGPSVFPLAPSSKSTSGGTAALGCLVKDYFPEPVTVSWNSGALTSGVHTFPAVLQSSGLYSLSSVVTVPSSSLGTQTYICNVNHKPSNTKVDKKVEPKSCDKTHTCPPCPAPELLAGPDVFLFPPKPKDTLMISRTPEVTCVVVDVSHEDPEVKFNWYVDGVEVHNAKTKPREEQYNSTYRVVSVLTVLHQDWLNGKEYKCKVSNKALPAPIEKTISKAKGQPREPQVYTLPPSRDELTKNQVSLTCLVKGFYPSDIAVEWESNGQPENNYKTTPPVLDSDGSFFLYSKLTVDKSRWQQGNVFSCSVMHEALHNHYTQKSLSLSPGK
light: DIVMTQSQKFMSTSVGDRVSVTCKASQIVGSNVAWYQQKPGQSPKPLIYSASYRYSGVPDRFTASGSGTDFTLTITNVQSEDLAEYFCQQYSSHPLTFGAGTKLELKRTVAAPSVFIFPPSDEQLKSGTASVVCLLNNFYPREAKVQWKVDNALQSGNSQESVTEQDSKDSTYSLSSTLTLSKADYEKHKVYACEVTHQGLSSPVTKSFNRGEC
notes: also called 10D1 GASD variant
B2: anti-HER3 clone 10D1 IgG1 (antibody)
heavy: not shown
light: DIVMTQSQKFMSTSVGDRVSVTCKASQIVGSNVAWYQQKPGQSPKPLIYSASYRYSGVPDRFTASGSGTDFTLTITNVQSEDLAEYFCQQYSSHPLTFGAGTKLELKRTVAAPSVFIFPPSDEQLKSGTASVVCLLNNFYPREAKVQWKVDNALQSGNSQESVTEQDSKDSTYSLSSTLTLSKADYEKHKVYACEVTHQGLSSPVTKSFNRGEC
notes: Mouse variable regions on human IgG1/kappa constant regions (chimeric); also called 10D1P; 10D1 (parental)
B3: 10D1F.FcA (anti-HER3 clone 10D1_c89 IgG1) (antibody, V domains shown)
VH: QVQLQESGPGLVKPSQTLSLTCTVSGYSITSGYSWHWIRQHPGKGLEWIGSIRYSGGTDYNPSLKSLVTISADTSKNQFSLKLSSVTAADTAVYYCARMTTAPWYPFDYWGQGTTVTVSS
VL: DIQMTQSPSSVSASVGDRVTITCKASQIVGSNVAWYQQKPGKAPEPLIYSASYLYSGVPSRFSGSGSGTDFTLTISSLQPEDFATYYCQQYSSHPLTFGQGTKLEIKR
notes: also called 10D1F.A

Key:
[1] = target: T1, His-tagged FcγRIIIa (V158) (UniProt P08637 17-208); test: BLI, His-tagged FcγRIIIa (V158) captured on HIS1K tips, antibody in solution
T1 construct: not shown: His tag
Protocol: Briefly, anti-Penta-HIS (HIS1K) coated biosensor tips (Pall ForteBio, USA) were used to capture His-tagged FcγRIIIa (V158) (270 nM) for 120 s. All measurements were performed at 25° C. with agitation at 1000 rpm. Association kinetic measurements for antigen binding were performed by incubating anti-HER3 antibodies at different concentrations (500 nM to 15.6 nM) for 60 s, followed by a 120 s dissociation time by transferring the biosensors into assay buffer (pH 7.2) containing wells. Sensograms were referenced for buffer effects and then fitted using the Octet QK384 user software (Pall ForteBio, USA). Kinetic responses were subjected to a global fitting using a one site binding model to obtain values for association (Kₒₙ), dissociation (Koff) rate constants and the equilibrium dissociation constant (KD). Only curves that could be reliably fitted with the software (R²>0.90) were included in the analysis.

mouse HER3 = target: T2, mouse HER3 (mouse, UniProt Q61526 20-641, limits assumed); test: ELISA, plate-coated target, antibody titrated from 10 µg/ml
T2 construct: also called mouse homologue of HER3; M. musculus HER3
T2 sequence (Q61526 20-641 limits assumed): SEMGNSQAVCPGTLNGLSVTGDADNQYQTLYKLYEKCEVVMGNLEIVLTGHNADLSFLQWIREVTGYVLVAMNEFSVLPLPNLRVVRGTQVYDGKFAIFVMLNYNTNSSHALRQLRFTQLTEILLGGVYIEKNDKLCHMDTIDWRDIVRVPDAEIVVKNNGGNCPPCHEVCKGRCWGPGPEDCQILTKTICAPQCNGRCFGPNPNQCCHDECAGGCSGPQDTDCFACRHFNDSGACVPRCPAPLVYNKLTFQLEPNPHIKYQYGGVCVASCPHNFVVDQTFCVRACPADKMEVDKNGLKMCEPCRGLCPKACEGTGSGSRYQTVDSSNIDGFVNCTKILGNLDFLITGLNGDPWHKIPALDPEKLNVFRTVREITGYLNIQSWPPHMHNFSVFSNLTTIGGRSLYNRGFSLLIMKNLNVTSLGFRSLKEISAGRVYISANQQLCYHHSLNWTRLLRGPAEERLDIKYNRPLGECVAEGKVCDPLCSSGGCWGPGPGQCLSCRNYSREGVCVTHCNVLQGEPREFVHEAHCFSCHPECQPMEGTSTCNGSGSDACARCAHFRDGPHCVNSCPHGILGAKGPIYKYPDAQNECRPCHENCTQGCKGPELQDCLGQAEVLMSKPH

rat HER3 = target: T3, rat HER3 (rat, UniProt Q62799 20-643, limits assumed); test: as above
T3 construct: also called rat homologue of HER3; R. norvegicus HER3
T3 sequence (Q62799 20-643 limits assumed): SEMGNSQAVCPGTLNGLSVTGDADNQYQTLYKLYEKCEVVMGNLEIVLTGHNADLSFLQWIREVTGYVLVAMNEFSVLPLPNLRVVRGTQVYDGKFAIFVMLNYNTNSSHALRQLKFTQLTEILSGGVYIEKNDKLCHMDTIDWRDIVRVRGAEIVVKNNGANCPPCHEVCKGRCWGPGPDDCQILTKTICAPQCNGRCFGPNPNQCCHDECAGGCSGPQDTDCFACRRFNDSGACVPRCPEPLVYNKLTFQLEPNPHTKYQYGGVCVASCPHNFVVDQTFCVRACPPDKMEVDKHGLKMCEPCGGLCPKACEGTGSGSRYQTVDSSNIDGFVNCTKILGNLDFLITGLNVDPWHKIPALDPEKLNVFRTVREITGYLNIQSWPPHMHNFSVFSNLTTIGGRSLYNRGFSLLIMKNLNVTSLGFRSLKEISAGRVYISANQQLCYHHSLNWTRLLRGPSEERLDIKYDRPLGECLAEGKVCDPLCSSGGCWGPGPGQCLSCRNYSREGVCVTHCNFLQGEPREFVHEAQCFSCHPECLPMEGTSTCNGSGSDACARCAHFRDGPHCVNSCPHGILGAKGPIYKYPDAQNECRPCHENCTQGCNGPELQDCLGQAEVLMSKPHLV

Binder | binding result [1] | binding result (mouse HER3) | binding result (rat HER3)
B1 | binds |  | 
B2 | binds | binds | binds
B3 |  | binds | binds
